Measured values from the nanobody polyreactivity screen of Harvey et al. (2022).

Test: yeast display, Sf9 membrane polyspecificity reagent, FACS + sequencing; frameworks hold sequencing errors
In short: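 Sorting gates, low and high (top ~1%), were placed on anti-HA fluorescence to track expression and on streptavidin fluorescence to track reagent binding. A clone's polyreactivity label is taken from the gate it came out of. The reagent was 10% biotinylated, detergent-solubilized Sf9 membrane, applied for 1 hour at 4 °C to galactose-induced yeast display cells.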

Sequence | polyreactivity (PSR sort gate)
QVQLVESGGGLVQAGGRLRLSCAASGRTFHYYALGWYRQATGKERELVAVIRYSGGRTYYADTVKGRFTISRDNAKNTVYLQMNSLKPEDTAVYYCNKGRWRTDPPVYLIAFDYWGQGTQVTVSS | low polyreactivity
QVQLVESGGGLVQAGGRLRLSCAASGRTFLYYAMGWSRQAPGKERELVAAINWRGTRTYYADSVKGRFTISRDNAQNTVYLQMNSLKPEDTAVYYCNRQGPDFHLRAGQGNYWGQGTQVTVSS | high polyreactivity
QVQLVESGGGLVQAGGRLRLSCAASGRTFRYYGMGWYRQAPWKERELVAAISWSGGSTYYADSVKGRFTISRDNAKNTVYLQMNSLTPEDTAVYYCNVDFHWQRFHHKSAAYDYWGQGTQVTVSS | high polyreactivity
QVQLVESGGGLVQAGGRLRLSCAASGRTFSPYAMGWYREAPGKEREFVAASTWSAGRTYYADSVKGRFTISRDNAKNTVYLQMNSLKPEDTAVYYCNARDRSITYPRYDYWGQGTQVTVSS | high polyreactivity
QVQLVESGGGLVQAGGRLRLSCAASGRTFYGFAMGWYRQAPGKERELVASISRDGSTNYADSVKGRFTISRDNAKNTVYLQMNSLKPEDNAVYYCAADIWYYRYPIYYYSYDYWGQGTQVTVSS | low polyreactivity
QVQLVESGGGLVQAGGRLRLSCAASGRTFYGYAMGWYSPAPGKERELVAAITNGGRTYYADSVKGRFTISRDNAKNTVYLQMNSLKPEATAVYYCAAGPGRGRSTLGSYYWGQGTQVTVSS | high polyreactivity
QVQLVESGGGLVQAGGRLRLSCAASGRTFYYYAMGWYRQAPGKERELVAAISWSGGRTYYADSVKGRFTISRDNAKNTVYLQMNSLKPEDTAVYYCNAETAAAQASYDRLDVLLDYWGQGTQVTVSS | low polyreactivity
QVQLVESGGGLVQAGGRLRLSCAASGRTIANYAMGWYRQAPGKERELVAAISFSTVSTYYADSVKGRFTISRDNAKNTVYLQMNSLKPEDTAVYYCAARRLGYYRKVKELDYWGQGTQVTVSS | high polyreactivity
QVQLVESGGGLVQAGGRLRLSCAASGSIFGVYAMGWYRQSPGKERELVATISRSGAITYYADSVKGRFTISRDNAKNTVYLQMNSLKPEDTAVYYCAADFFSRDWGQGTQVTVSS | low polyreactivity
QVQLVESGGGLVQAGGRLRLSCAASGSIFITYDMGWYRQAPGKERELVATISTTGGTTYYADSVKGRFTISRDNAMNTVYLQMNSLKPEDTAVYYCAADWRYLYYALDYWGQGTQVTVSS | low polyreactivity
QVQLVESGGGLVQAGGRLRLSCAASGSIFNSYAMGWYRQAPGTEREFVASIPKSGGTTYYADSVKGRFTISRDNAKNTVYLQMNSLKPEDTAVYYCAADWYRSSWTYNYWGQGTQVTLSS | low polyreactivity
QVQLVESGGGLVQAGGRLRLSCAASGSIFPQYAMGWYRQAPGKERELVAAITWSGSRTRYADSVKGRFTISRDNAKNTVYLQMNSLKPEDTAVYYCAARVNGQTYYYWGQGTQVTVSS | high polyreactivity
QVQLVESGGGLVQAGGRLRLSCAASGSIFVPNAMGGYRQAPGKERELVAAISGIGGSTSYADSEKGRFTISRDNAKNTVDLHMNSLQQEDTAVYYCARADKLHTRGWGRWGSGSYSWGQGTQVTVSS | low polyreactivity
QVQLVESGGGLVQAGGRLRLSCAASGSIFYRSAMGWYRQAPGKERELVAAITRSDGRTYYADSVKGRFTISRDNAKNTVYLQMNSLKPEDTAVYYCNKDGAYKTAYKRWTLYDYWGQGTQVTVSS | low polyreactivity
QVQLVESGGGLVQAGGRLRLSCAASGSISNRYAMGWYRQAPGKERELVAAISTGGGTTYYADSVKGRFTISRDNAKNTVYLQMNSLKPEDTAVYYCAADDWRYYRELDYWGQGTQVTVSS | low polyreactivity
QVQLVESGGGLVQAGGRLRLSCAASGSNFGSNAMGWYRQAPGKESEFVAVITCRVGDTYYADSVKGRFTISRDNAKNTVYLQMYSLKPEDTAVYYCNVDWKVYGAPDYRIAWKYDYWGQGTQVTVSS | low polyreactivity
QVQLVESGGGLVQAGGRLRLSCAASGSSFLGYVMGWSRQAPGKERELVAAITRSGGRTYYADSVKGRFTISRDNAKNTVYLQMTSLNPEDTAVYYCAALRGPSFHGYGYWGQGSQVTVSS | high polyreactivity
QVQLVESGGGLVQAGGRLRLSCAASGSTCGPYTLGWYRQAPGTEREVVATISSGGSTYYADSVKWRFTISRDNAKNTVYLQMNSLKPEDTAVYFCNKDFFYLRTWRSVYEFEYWGQGTQVTVSS | low polyreactivity
QVQLVESGGGLVQAGGRLRLSCAASGSTFEINVMGWYRQAPGKERELFAAITYSGGSTYYADSVKGRFTISRDNEKNTVYLQMNSLKPEDTAVYYWNADYILDAQYDYWGQGTQVTVSS | low polyreactivity
QVQLVESGGGLVQAGGRLRLSCAASGSTFGFNAMGWSREAPGKERELVAASNDSGGDTYYADSVKGRFTSSRDNAKNTVYLQMNSLKPEDTAVYYCAADEPSSVYGILVELEYWGQGTQVTVST | high polyreactivity

Sequence | polyreactivity (PSR sort gate)
QVQLVESGGGLVQAGGRLRLSCAASGSTFGINAMGWYRQAPGKERELVAAITSTGRTYYADSVKGRFTISRDNAKNTVYLQMNSLKPEDTAVYYCAAVWRYKGLLLPSYYYWGQGTQVTVSS | high polyreactivity
QVQLVESGGGLVQAGGRLRLSCAASGSTFHYYAMGWDRQAPGKERELVAAISQSGSGTYYADSVKGLFTISRDNAKKTVYLQMNSLKPEDTAVYYCAKDITGLSRYRRDYWGQGTQVTVSS | low polyreactivity
QVQLVESGGGLVQAGGRLRLSCAASGSTFQFYAMGWYRQAPGKERELVAAITSSGSSTYYADSVKGRFTISRDNAKNTVYLQMNSLKPEDTAVYYCAARYYGYSVSYYYWGQGTQVTVSS | high polyreactivity
QVQLVESGGGLVQAGGRLRLSCAASGSTFSFNAMGWYRQAPGKERELVAAIRVSSGTTYYADSVKGRFTISRDNAKNTVYLQMNSLKPEDTAVYYCAARYYYDWRQYGYWGQGTQVTVSS | high polyreactivity
QVQLVESGGGLVQAGGRLRLSCAASGSTFWGYTMGWYRQAPGKERELVAAISTIGGSTYYADSVKGRFTISRDNAKNTVYLQMNSLKTEDTAVYYCAAYKGKHYKEGYWGQGTQVTVSS | low polyreactivity
QVQLVESGGGLVQAGGRLRLSCAASGSTFWYYAMGWSRQAPGKEREFVAAITTGGSSTYYADSVKGRFTISRDNAKNTVYLQMNSLKPEDTAVYYCAARGWRSPYAYYYWGQGTQVTVSS | high polyreactivity
QVQLVESGGGLVQAGGRLRLSCAASGTFRRNAMGWYRQAPGKERELVAAIRWSGGITYYADSVKGRFTISRDNAKNTVYLQMNSLKPEDTADYYCSGQRYYGFGKTYYYWGQGTQVTVSS | high polyreactivity
QVQLVESGGGLVQAGGRLRLSCAASGYTFAGNAMGGYRPAPGKERELVAVITYSGGSTYYADSVKGRFTISRDNAKNTVYLQMNSLKPEDTAVYYCAADWQYSPRMDYWGQGTQVTVSS | low polyreactivity
QVQLVESGGGLVQAGGRLRLSCAASGYTFGVYDMGWYRQAPGKERELVAAISGSTYYADSVKGRFTISRDNAKNTVYLQMNSLKPEDTAVYYCAAESYFFSPRTREKFDYWGQGTQVTVSS | low polyreactivity
QVQLVESGGGLVQAGGRLRLSCAASVFTYKSYAMVWYRQAPGKERELVASIDKSTGNTFYADSVKGRFTISRDNAKNTVYLQMNSLKPEDTAVYYCAVDLLRSESHSKHIIYDYWGQGTQVTVSS | low polyreactivity
QVQLVESGGGLVQAGGRLRLSCAASVNTFGANAMGWYRQAPGKESELVADITQSGGSTYYADSVKGRFTISRDNAKNTVYLQMNSLKPEDTALYYCNIVTRYYTPFEEYDYWGQGTQVTVSS | low polyreactivity
QVQLVESGGGLVQAGGRLRLSCAATGRTFGRNAMGWYRQAPGKERELVAAINGNGGRTYYADSVKGRFTISRDNAKNTVYLQMNSLKPEDTAVYYCAADLRRSDYDYWGQGTKVTVSS | high polyreactivity
QVQLVESGGGLVQAGGRLRLSCAATGRTFLPNAMGWYRQAPGKERELVASINGDGTTNYADSVKGRFTISRDNAKNTVYLQMNSLKPEDTAVYYCAADGYGGYYRGTYYTVYYWGQGTQVTLSS | low polyreactivity
QVQLVESGGGLVQAGGRLRLSCAAYGRIFDYYAMGWYRPAPGKEREFVAGITSTGGSTYYADSVKGRFTISRDNAMNTVYFQMNSLKPEDTPVYYCNVVKRLRHGYDYWGQGNQVTVSS | high polyreactivity
QVQLVESGGGLVQAGGRLRLSCAAYGRTFSDYTMGWYRQAPGKERELVAAISRRGGTTYYADSVKGRFTISRDNAKNTVYLQMNSLKPEDTAVYYCAAKRYRPKYEYDYWGQGTQVTVSS | high polyreactivity
QVQLVESGGGLVQAGGRLRLSCAAYGSIFMYYAMGWYRQSPVKERELVAAITRGGSTYYADSVKGRFTISRDNAKNTVYLQMNSLKPEDTAVYYCAATTFRSVGYDYWGQGTQVTVSS | low polyreactivity
QVQLVESGGGLVQAGGRLRLSCADSGRIFVKNTMGWYRQAPGKERELVAAISWSGGSTYYADSVKGRFTISRDNAKNTVYLQMNSLKPEDTAVYYCNARKRTKLSYPKFDYWGQGTQVTVSS | high polyreactivity
QVQLVESGGGLVQAGGRLRLSCAHSGIIFFFYAMGWYRQAPGKERELVAAISDDGVSTDYADSVKGRFTISRDNAKNTVYLQMNSLKPEDTAVYYCAAKTERVYPWFSFGYWGQGTQVTVSS | low polyreactivity
QVQLVESGGGLVQAGGRLRLSCAPSGSTFSTYAMGSYRQAPGNERELVAVITWRGGSTYYADSVKGRFTISRDNAKNTVYLQMNSLKPEDTAVYYCAAEGESPEYDYWGQGTQVTVSS | low polyreactivity
QVQLVESGGGLVQAGGRLRLSCDASGSIFYYYTMGWYRQAPGKEREFVAAITWRGASTYYADSVKGRFTISRDNAKNTVDLKMNSLKPEDTAVDYCNARWRVPRYRYDYWGQGTQVTVSS | high polyreactivity
